The values below come from patent publication US20130171069A1.

The target in the test is synthetic amylospheroid (synthetic ASPD) (UniProt P05067). Description: SPR; biotinylated peptide on the chip, ASPD as ligand. For orientation: In SPR one partner is held on a chip, and binding of the other changes the refractive index at the surface.

Ends that are not written are not given here.

Usually Kd stands for the free concentration of one partner at which half of the binding sites on the other are occupied at equilibrium, for simple one-to-one binding. Read a high Kd as weaker binding. As usually defined, the kon is a measure of how fast the partners come together. Read a low kon as slower complex formation. Molecule HFNWYNLWRVQY-biotin [C-terminal biotinylated AAT01 …] had an equilibrium dissociation constant (Kd) of 57.7 nM and a kon of 7640 M⁻¹ s⁻¹.

HLNWLSWFPSRH-biotin [C-terminal biotinylated AAT03 …] yielded a Kd of 88.5 nM.

HLNWWHSWYPAR-biotin [C-terminal biotinylated AAT02 …] registered a Kd of 82.4 nM.
